Test results: patent US20240043859A1, “HERBICIDE-RESISTANT PROTEIN, AND GENE AND USE THEREOF” (QINGDAO KINGAGROOT CHEMICAL COMPOUND CO., LTD., priority 2020, published 2024)
Entries after “also recorded” stand apart in the source; their conditions may differ.

B1: QYD45: AAD-like enzyme, SEQ ID NO. 89 (protein)
chain: MARPFDIAPLDATFGAIVTGVKLAGLDEACWRALHAAWLQYALLVFPNQHLARVEQIAFAKRFGPLEFEMAAISNVRADGSLRVETDNDDMMKILKGNMGWHADSTYMPVQAKGAVFSAEVVPTIGGQTGFADMRAAYDALDEDLKARVETLQAYHSLHYSQSRLGHETKKADGEYSGYGLHDGPVPLRPLVKTHPETGRKSLLIGRHAHAIPGMEPGESERFLQELIDFACQPPRVYRHNWAPGDAVLWDNRCLLHQATPWDMTQKRIMWHSRIAGDAAGETALAH
modifications: Synthetic polypeptide, QYD45, D45
B2: QYD49: AAD-like enzyme, SEQ ID NO. 97 (protein)
chain: MARTFDIEPLAGTTFGAVVRGMKVAILDDAGWRDLYAAWLKYALLVFPGQHLKRDEQIAFAKRFGALEFEMAALSNVKSDGTLRQEKDNDDMMKILKGNMGWHADSTYMPVQAKGAVFSAEIVPGAGGQTGFADMRAAYDALDAGRKAKVERLAAHHSLHYSQSKLGHQTKKQDGEYSGYGLHDGPVPLRPLVKTHPETGRKSLLIGRHAHNIPGMDKAESERLLQELVDFACQPPRVYHHDWTAGDAVVWDNRCLLHQATPWDMTQPRVMWHSRIAGDPRSEAALGVTAVSAAASG
modifications: Synthetic polypeptide, QYD49, D49
B3: QYD43: AAD-like enzyme, SEQ ID NO. 85 (protein)
chain: MRRLHIAPTGATLGATVTGVSLAALDEPTWQAIYRAWLEHALLIFPGQHLSNQQQIGFARRFGAIERIGGGEIVAISNVKADGRVRAHTPAEWDDMMKVIVGNMAWHADSTYMPVMAKGAVFSGELVPTERGETSFADMRAAYDALDQATRALVHQRSAHHSLVYSQSKLGHVPGAQSAYLGYGMDQTTAPLRPLVKVHPETGRQSLLIGRHAHAIPGMDPAESEVFLEGLVEWACQPPRIHTHHWTAGDVVLWDNRCLLHRAMPWDLAQPRVMWHSRLAGDPVAEAALPPVAPAAATH
modifications: Synthetic polypeptide, QYD43, D43

Legend:
[1] = Chromogenic reaction of degrading herbicides in bacteria: 2,4-D; format: cell-based, Escherichia coli; details: recombinant E. coli expressing the gene, 2,4-D added to the medium, red = phenols
Method in brief: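 Colour from 2,4-D degradation was detected at A510 after 5 min at room temperature, with 4-aminoantipyrine and ferricyanide added to culture supernatant in pH 10 borate. Cultures were AAD12-expressing or empty-vector (pET15b) BL21(DE3), grown overnight at 28 °C with 0.5 mM 2,4-D, 0.1 mM IPTG and 2 mM α-ketoglutarate.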

[2] = format: cell-based, Escherichia coli
Arabidopsis thaliana [3] = assay: Herbicide resistance of transgenic Arabidopsis thaliana seedlings on plate medium (root growth); format: in vivo; details: for Resistance of transgenic Arabidopsis thaliana: 2,4-D / Resistance of transgenic Arabidopsis thaliana: MCPA: Arabidopsis overexpressing the gene
Method in brief: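 After 3 days of cold treatment at 4 °C, seeds were cultured at 22 °C under a 16 h/8 h light cycle on MS herbicide medium (0.3 μM 2,4-D in the screen). Root growth was scored against wild-type seedlings at one week. The material was T2 AAD-overexpressing lines (AtUbi10 promoter, MAS terminator, hygromycin marker), two events each, tested with 2,4-D, 2,4-DB sodium and MCPA.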

Arabidopsis thaliana [4] = assay: as above; format: in vivo; details: plate medium with 2,4-D (0.3 μmol)
[5] = Chromogenic reaction of degrading herbicides in bacteria: triclopyr; format: cell-based, Escherichia coli; details: recombinant E. coli expressing the gene
Description: To transform the plasmids to be tested, an AAD12-expressing plasmid and a blank control plasmid pET15b were respectively transformed into the protein expression E. coli BL21(DE3) strains. A monoclone was selected and inoculated in a 10 ml centrifuge tube with 3 ml LB medium, and cultivated at 37° C., 200 rpm for 6-8 hours. […] The temperature was switched to 28° C. and the cultivation continued overnight. In the next morning, 200 μL of each bacteria solution was taken and centrifuged to precipitate thallus, 180 μL of the supernatant was taken and added in a 96-well plate, and 20 μL of borate buffer of pH 10 was added. Then the mixture was added with 2 μL of 8% potassium ferricyanide and mixed well, followed by adding 2 μL of 2% 4-aminoantipyrine, and placed at room temperature for 5 min to observe the color and detect the A510 value. […]

| Molecule | Chromogenic reaction of degrading herbicides in bacteria: 2,4-D [1] | Chromogenic reaction of degrading herbicides in bacteria: 2,4-D ([1]; listed as D45) | Chromogenic reaction of degrading herbicides in bacteria: MCPA [2] | Resistance of transgenic Arabidopsis thaliana: 2,4-D (Arabidopsis thaliana [3]) | Resistance of transgenic Arabidopsis thaliana: MCPA (Arabidopsis thaliana [3]) | MCPA resistance of T1 generation transgenic seedlings (Arabidopsis thaliana [3]; plate medium with MCPA (0.1 μmol)) | 2,4-DB sodium resistance of T2 generation transgenic plants (Arabidopsis thaliana [3]; plate medium, 2,4-DB sodium (0.7 μmol), two events per transformant) | MCPA resistance of T2 generation transgenic plants (Arabidopsis thaliana [3]; plate medium, MCPA (0.1 μmol), two events per transformant) | 2,4-D resistance of T1 generation transgenic seedlings (seminal root growth) (Arabidopsis thaliana [4]) | Chromogenic reaction of degrading herbicides in bacteria: 2,4-D ([1]; listed as D49) | Chromogenic reaction of degrading herbicides in bacteria: 2,4-D ([1]; listed as D43) | Chromogenic reaction of degrading herbicides in bacteria: Triclopyr [5] | Chromogenic reaction of degrading herbicides in bacteria: Triclopyr ([5]; listed as D43) |
| --- | --- | --- | --- | --- | --- | --- | --- | --- | --- | --- | --- | --- | --- |
| B1 | Yes | could degrade 2,4-D; also recorded: capable of degrading 2,4-D | Yes | Yes | Yes | obvious resistance | obvious resistance | obvious resistance | showing tolerance to 2,4-D; also recorded: lower resistance |  |  |  |  |
| B2 | Yes |  | Yes | Yes | Yes |  |  |  | showing tolerance to 2,4-D | could degrade 2,4-D; also recorded: capable of degrading 2,4-D |  |  |  |
| B3 | Yes |  | Yes | Yes | Yes |  |  |  | showing tolerance to 2,4-D |  | could degrade 2,4-D; also recorded: capable of degrading 2,4-D | Yes | slight degradation |
